Experimental data from patent US12214076B2, “Drug delivery vehicles for atherosclerosis nanomedicine” (Northwestern University, priority 2019, dated 2025).
Peptide text beside a SMILES is read from it. * marks the point of attachment. Palmitoyl = CCCCCCCCCCCCCCCC(=O)*

Legend:
J774.2 macrophages = assay: Cellular uptake and localization of ApoA1-Ac2-26 PA; assay type: cell-based, mouse
Protocol: Cellular uptake and localization of ApoA1-Ac2-26 PA: PAs containing 40 mol % ApoA1 PA, 10 mol % MMP-Ac2-26 or ROS-Ac2-26 PA, 45.5 mol % E2 filler PA, and 4.5 mol % E2 filler PA with AF546 were co-assembled as described above and aged at least 1 week in PBS at 4° C. to promote nanofiber formation. Macrophages were seeded onto 6-channel μ-Slide VI 0.4 (ibidi) at 2.1×10^5 cells/cm^2 and allowed to adhere for 24 hours before adding 0.33 μM 10% MMP- or ROS-Ac2-26 PA and incubated at 37° C. for 1 or 24 hours. At each time point, the samples were fixed with 4% paraformaldehyde for 10 minutes, followed by permeabilization with 0.125% Triton-X for 10 minutes. The samples were rinsed twice with PBS and incubated with blocking buffer consisting of 2% w/v BSA for one hour at room temperature before incubating with 20 μg/mL LAMP1 antibody (rabbit polyclonal, abcam) for 12-18 hours at 4° C. The samples were rinsed twice with PBS containing 0.01% Tween-20 at one hour per rinse followed by an hour rinse with PBS before adding 2 μg/mL donkey anti-rabbit Alexa Fluor Plus 647 (Highly cross-adsorbed secondary antibody, Invitrogen) for 12-18 hours at 4° C. The samples were rinsed twice with PBS before adding 5 μg/mL 4′,6-Diamidino-2-Phenylindole (DAPI, ThermoFisher Scientific) and phalloidin (1:1000 dilution, CruzFluor™ 488 conjugate, Santa Cruz Biotechnology) for one hour at room temperature. Samples were rinsed and stored in PBS until image analysis. Microscopy was performed using Zeiss 880 confocal microscopy at 63× magnification with numerical aperture of 1.4. Lasers at 405, 488, 561, and 633 nm were used to collect images through Multi Channel acquisition, which uses a separate scan for each channel to avoid spectral overlap. 3D images were created using z-stacks with 9-14 μm thick sections compiled from 0.22 μm slices using a line step of 1, speed of 8, and image size of 1024×1024 pixels at 16 bit depth. To examine colocalization of PAs to endosomes/lysosomes, Manders coefficient calculations using the Coloc 2 plugin from Fiji were used.

[1] = TEM nanofiber length of ApoA1-Ac2-26 PA co-assemblies; assay type: physicochemical; settings: aged at least 24 hours at 4° C.
Protocol: TEM: Conventional TEM images were taken on a FEI Tecnai T-12 TEM at 80 kV with a Gatan Orius® 2 k×2 k CCD camera. PAs at 1 mM in phosphate buffered saline (PBS) were prepared for TEM by pipetting 8 μL atop copper supports that were covered with thin carbon foil 400-mesh and treated with glow discharge. After two minutes, samples were rinsed with deionized water and stained with 2% uranyl acetate for two minutes before imaging. PA nanofiber length was quantified manually using Fiji open source image processing software.

Zeta potential = assay type: physicochemical
Protocol: Zeta potential: The PA charge was characterized using a Zetasizer Nano ZS (Malvern). Samples were prepared at 0.5 mM and passed through a 0.2 μm filter (Acrodisc® Syringe Filters with Supor® Membrane, Pall). At least 10 scans were taken per measurement, three measurements per sample at 25° C. and 37° C.

[2] = Small angle x-ray scattering (SAXS) of PA nanofibers; assay type: physicochemical
Protocol: Small angle x-ray scattering (SAXS): SAXS characterization of the PA nanofibers was performed at the Advanced Photon Source in the Argonne National Laboratory on beamline 5-ID-D, DuPont-Northwestern-Dow Collaborative Access Team Synchrotron Research Center. Samples were prepared at 5 mM in PBS solution, aged at least 24 hours at 4° C., and analyzed in 1.5 mm quartz capillaries (Charles Supper) at 17 keV with a charged couple device photon detector located 245 cm behind the sample. Scattering intensities were collected using wave vector q range of 0.0024 to 0.40 Å^−1. q represents the scattering vector and is calculated as q=4π sin (θ)/λ, with θ as the scattering angle between the incident beam and detector and […] the X-ray wavelength. The plots of scattering intensity versus q were obtained using NIST software Igor Pro v8. The scattering intensities of PBS were subtracted from the PA samples using the Irena SAS macro, and the resulting plots were fitted using NCNR Analysis macro to a polydisperse core shell cylinder model.

[3] = test system: atherosclerotic LDLR KO mice; assay: In vivo proof of concept: PA nanofiber localization in aortic root; parameters: species or system mouse; settings: 24 h after intravenous injection, high fat diet 14 weeks, 6 mg kg-1 PA
Protocol: Mouse Model of Atherosclerosis and In Vivo Proof of Concept: LDLR-KO mice were fed a high fat “Western” diet (Teklad TD.88137) starting at 4 weeks of age. This diet consisted of 20% fat, 0.2% cholesterol, and 34% high sucrose. LDLR-KO mice fed this diet typically develop severe hypercholesterolemia (>800 mg/dL) and hypertriglyceridemia (>300 mg/dL) after only 2 weeks, and by 12 weeks on the high fat diet, atherosclerotic lesions are detected in the aortic root and aortic arch. After 14 weeks on the high fat diet, mice received intravenous injections of PA nanofibers dissolved in PBS (dorsal penile vein in males) under sterile conditions. Mice were briefly anesthetized for injection with inhaled isoflurane. After injection, mice were monitored and allowed to recover from anesthesia in a heated oxygen chamber. […] PA fluorescence was assessed with the HE CY3 filter (Zeiss filter #43) using excitation and emission wavelengths of 550-575 nm and 605-670 nm, respectively. Nuclear staining was performed with DAPI (4′,6-Diamidino-2-Phenylindole, Dilactate, ThermoFisher, Chicago, IL), and assessed with the DAPI filter (Zeiss filter #49) using excitation and emission wavelengths of 365-395 and 445-450 nm, respectively. Tissue autofluorescence was assessed with the green fluorescent protein filter (Zeiss filter #38) using excitation and emission wavelengths of 470-495 and 525-550 nm, respectively. […]

Compound | average Manders coefficient, LAMP1 to PA colocalization (J774.2 macrophages; 24 hours of treatment) | average Manders coefficient, PA to LAMP1 colocalization (J774.2 macrophages; 24 hours of treatment) | cellular retention of PAs (J774.2 macrophages; confocal microscopy) | median nanofiber length [1] | overall charge (zeta potential) (Zeta potential; 25° C.) | overall charge (zeta potential) (Zeta potential; 37° C.) | SAXS slope of Guinier regime in the low q region ([2]; 5 mM in PBS) | core radius (polydisperse core-shell cylinder model) ([2]; SAXS fit) | radial shell thickness (polydisperse core-shell cylinder model) ([2]; SAXS fit) | localization of nanofibers to areas of atherosclerotic plaque in the aortic root [3]
10% MMP-Ac2-26 PA: co-assembly of 10 mol % MMP-Ac2-26 PA, 50 mol % E2 filler PA, and 40% ApoA1 PA (VVAAEEGGGPQGIWGQGKAMVSEFLKQAWFIENEEQEYVQTVK) | 0.79 | 0.48 | found in the extracellular space | 159 nm | −18.1±0.5 mV | maintained | −1.8 | 2.1 nm | 2.0 nm | –
CCCCCCCCCCCCCCCC(=O)N[C@H](C(=O)N[C@H](C(=O)N[C@@H](C)C(=O)N[C@@H](C)C(=O)N[C@@H](CCC(=O)O)C(=O)N[C@@H](CCC(=O)O)C(=O)NCC(=O)N[C@@H](CC(=O)O)C(=O)N[C@@H](Cc1c[nH]c2ccccc12)C(=O)N[C@@H](Cc1ccccc1)C(=O)N[C@@H](CCCCN)C(=O)N[C@@H](C)C(=O)N[C@@H](Cc1ccccc1)C(=O)N[C@@H](Cc1ccc(O)cc1)C(=O)N[C@@H](CC(=O)O)C(=O)N[C@@H](CCCCN)C(=O)N[C@H](C(=O)N[C@@H](C)C(=O)N[C@@H](CCC(=O)O)C(=O)N[C@@H](CCCCN)C(=O)N[C@@H](Cc1ccccc1)C(=O)N[C@@H](CCCCN)C(=O)N[C@@H](CCC(=O)O)C(=O)N[C@@H](C)C(=O)N[C@@H](Cc1ccccc1)C(N)=O)C(C)C)C(C)C)C(C)C [ApoA1 PA] (Palmitoyl-VVAAEEGDWFKAFYDKVAEKFKEAF-NH2) | – | – | – | – | – | – | – | – | – | localization of the nanofibers to areas of atherosclerotic plaque
